Reference: paper PMC11330416

Tests used:
[1] = biological target: biotinylated human angiotensin-converting enzyme 2 reference material ACE2-1 (human) (UniProt Q9BYF1); assay: SPR; ACE2-1 immobilised by its biotin on streptavidin on a biotin-coated Au chip (250-300 RU), blocked with 10 uM BSA; spike analyte in a twofold series of 12.5-200 nM at 50 uL/min, about 90 s association, 30-45 min dissociation; 10 mM HEPES pH 7-7.4, 150 mM NaCl, 3 mM EDTA, 0.05% Tween-20; 1:1 binding model; averages of two independent experiments
Chain of biotinylated human angiotensin-converting enzyme 2 reference material ACE2-1 (human) (Q9BYF1 20-614): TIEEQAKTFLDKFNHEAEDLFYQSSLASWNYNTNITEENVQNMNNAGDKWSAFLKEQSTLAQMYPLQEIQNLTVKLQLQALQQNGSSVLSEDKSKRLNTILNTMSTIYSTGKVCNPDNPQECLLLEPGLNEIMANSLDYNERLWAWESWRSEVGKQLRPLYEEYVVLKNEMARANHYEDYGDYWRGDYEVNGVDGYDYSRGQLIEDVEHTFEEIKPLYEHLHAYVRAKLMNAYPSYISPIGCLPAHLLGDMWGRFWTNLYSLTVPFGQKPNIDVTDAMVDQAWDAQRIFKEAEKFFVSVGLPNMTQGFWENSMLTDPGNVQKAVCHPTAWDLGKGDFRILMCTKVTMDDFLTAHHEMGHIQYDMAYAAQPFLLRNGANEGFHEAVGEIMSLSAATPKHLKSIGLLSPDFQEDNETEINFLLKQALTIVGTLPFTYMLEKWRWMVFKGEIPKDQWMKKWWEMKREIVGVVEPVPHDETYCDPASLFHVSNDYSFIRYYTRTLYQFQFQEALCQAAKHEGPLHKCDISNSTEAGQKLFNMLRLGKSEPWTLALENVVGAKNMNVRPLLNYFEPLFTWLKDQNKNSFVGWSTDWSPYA

[2] = biological target: NRC SARS-CoV-2 (reference strain) spike protein reference material SMT1-1 (SARS-CoV-2 (reference strain, Wuhan-Hu-1)); assay: SEC-MALS; Waters BEH SEC 4.6 x 150 mm column (200 A for ACE2-1, 450 A for OMIC-1), DPBS with 0.02% Tween-20, pH 7.4, 0.4 mL/min; UV at 280 nm, MALS and RI detection; relative amounts of species from SEC-UV

Substance: NRC SARS-CoV-2 (reference strain) spike protein reference material SMT1-1
- Kd [1]: 17.1 nM
- koff [1]: 0.0018 s⁻¹
- kon [1]: 110000 M⁻¹ s⁻¹
- stoichiometry N [2]: 3
